Data taken from patent US20250186614A1, “COMPACT DRUG RESPONSIVE DOMAINS FOR REGULATION OF FUNCTION/ABUNDANCE AND DELIVERY OF POLYPEPTIDE PAYLOADS” (OBSIDIAN THERAPEUTICS, INC., priority 2022, published 2025).
Read-outs that look alike come from different tables or passages of the source.

Assay: Example 4: dose response of FKBP constructs 160-255, Ec50, Ec90 and fold change (raw and normalized to mCherry)
Format: cell-based
Details: for FC (fold change): fold change during initial analysis
Procedure: Additional experiments were performed for constructs FKBP-160-292.

[1] = FKBP constructs 160-255, not normalized, read-out: EC90
[2] = normalized to mCherry, read-out: EC90 (Norm)

Molecule | FC (fold change) | EC90 [1] | EC90 [2]
FKBP-179 (protein, Description of sequence: Construct Name: FKBP-179; Mutation(s): Q72R Q84E A117W DRD M54A H53G R72L) HCPIKSRKGDVLGAHYTGKLEDGTEFDSSLPLNQPFVFSLGTGEVIKGWDQGLLGMCEGEKRKLVIPSELGYGERGWPPKIPGGATLVFEVELLKIER | 3.1 | – | –
FKBP-191: FKBP13 DRD-AcGFP construct of Table 10 (protein, Description of sequence: Construct Name: FKBP-191; Mutation(s): Q72R Q84E A117W V85R DRD G49S) HCPIKSRKSDVLHMHYTGKLEDGTEFDSSLPRNQPFVFSLGTGERIKGWDQGLLGMCEGEKRKLVIPSELGYGERGWPPKIPGGATLVFEVELLKIER | 50.6 | 367 nM | 391 nM
FKBP-193 (protein, Description of sequence: Construct Name: FKBP-193; Mutation(s): Q72R Q84E A117W V85R DRD D90A) HCPIKSRKGDVLHMHYTGKLEDGTEFDSSLPRNQPFVFSLGTGERIKGWAQGLLGMCEGEKRKLVIPSELGYGERGWPPKIPGGATLVFEVELLKIER | 37.8 | 13000 nM | 15000 nM
FKBP-192: FKBP13 DRD-AcGFP construct of Table 10 (protein, Description of sequence: Construct Name: FKBP-192; Mutation(s): Q72R Q84E A117W V85R DRD P75L) HCPIKSRKGDVLHMHYTGKLEDGTEFDSSLPRNQLFVFSLGTGERIKGWDQGLLGMCEGEKRKLVIPSELGYGERGWPPKIPGGATLVFEVELLKIER | 55.0 | 230 nM | 228 nM
FKBP-180 (protein, Description of sequence: Construct Name: FKBP-180; Mutation(s): Q72R Q84E A117W DRD M54A F129T) HCPIKSRKGDVLHAHYTGKLEDGTEFDSSLPRNQPFVFSLGTGEVIKGWDQGLLGMCEGEKRKLVIPSELGYGERGWPPKIPGGATLVTEVELLKIER | 1.2 | – | –
FKBP-199: FKBP13 DRD-AcGFP construct of Table 10 (protein, Description of sequence: Construct Name: FKBP-199; Mutation(s): Q72R Q84E A117W V85R DRD E98L) HCPIKSRKGDVLHMHYTGKLEDGTEFDSSLPRNQPFVFSLGTGERIKGWDQGLLGMCLGEKRKLVIPSELGYGERGWPPKIPGGATLVFEVELLKIER | 27.1 | 71.7 nM | 67.5 nM
FKBP-161 (protein, Description of sequence: Construct Name: FKBP-161; Mutation(s): Q72R Q84E A117W DRD M54S V85R) HCPIKSRKGDVLHSHYTGKLEDGTEFDSSLPRNQPFVFSLGTGERIKGWDQGLLGMCEGEKRKLVIPSELGYGERGWPPKIPGGATLVFEVELLKIER | 32.3 | 512 nM | 541 nM
FKBP-200: FKBP13 DRD-AcGFP construct of Table 10 (protein, Description of sequence: Construct Name: FKBP-200; Mutation(s): Q72R Q84E A117W V85R DRD D62S) HCPIKSRKGDVLHMHYTGKLESGTEFDSSLPRNQPFVFSLGTGERIKGWDQGLLGMCEGEKRKLVIPSELGYGERGWPPKIPGGATLVFEVELLKIER | 33.9 | 160 nM | 150 nM
FKBP-183 (protein, Description of sequence: Construct Name: FKBP-183; Mutation(s): Q72R Q84E A117W V85R DRD M54A L133G) HCPIKSRKGDVLHAHYTGKLEDGTEFDSSLPRNQPFVFSLGTGERIKGWDQGLLGMCEGEKRKLVIPSELGYGERGWPPKIPGGATLVFEVEGLKIER | 4 | – | –
FKBP-184 (protein, Description of sequence: Construct Name: FKBP-184; Mutation(s): Q72R Q84E A117W V85R DRD M54A S36G V131G) HCPIKGRKGDVLHAHYTGKLEDGTEFDSSLPRNQPFVFSLGTGERIKGWDQGLLGMCEGEKRKLVIPSELGYGERGWPPKIPGGATLVFEGELLKIER | 1 | – | –
FKBP-160 (protein, Description of sequence: Construct Name: FKBP-160; Mutation(s): Q72R Q84E A117W V85R DRD M54A) HCPIKSRKGDVLHAHYTGKLEDGTEFDSSLPRNQPFVFSLGTGERIKGWDQGLLGMCEGEKRKLVIPSELGYGERGWPPKIPGGATLVFEVELLKIER | 25.7 | 42.2 nM | 48.2 nM
FKBP-196 (protein, Description of sequence: Construct Name: FKBP-196; Mutation(s): Q72R Q84E A117W V85R DRD I136V) HCPIKSRKGDVLHMHYTGKLEDGTEFDSSLPRNQPFVFSLGTGERIKGWDQGLLGMCEGEKRKLVIPSELGYGERGWPPKIPGGATLVFEVELLKVER | 34.7 | 115 nM | 113 nM
FKBP-198: FKBP13 DRD-AcGFP construct of Table 10 (protein, Description of sequence: Construct Name: FKBP-198; Mutation(s): Q72R Q84E A117W V85R DRD K101W) HCPIKSRKGDVLHMHYTGKLEDGTEFDSSLPRNQPFVFSLGTGERIKGWDQGLLGMCEGEWRKLVIPSELGYGERGWPPKIPGGATLVFEVELLKIER | 54.3 | 253 nM | 274 nM
FKBP-194 (protein, Description of sequence: Construct Name: FKBP-194; Mutation(s): Q72R Q84E A117W V85R DRD L104V) HCPIKSRKGDVLHMHYTGKLEDGTEFDSSLPRNQPFVFSLGTGERIKGWDQGLLGMCEGEKRKVVIPSELGYGERGWPPKIPGGATLVFEVELLKIER | 24.8 | 102 nM | 122 nM
FKBP-190 (protein, Description of sequence: Construct Name: FKBP-190; Mutation(s): Q72R Q84E A117W V85R DRD M54A F129T) HCPIKSRKGDVLHAHYTGKLEDGTEFDSSLPRNQPFVFSLGTGERIKGWDQGLLGMCEGEKRKLVIPSELGYGERGWPPKIPGGATLVTEVELLKIER | 0.9 | – | –
